Experimental data published in US20250034594A1, “RNA-GUIDED GENOME RECOMBINEERING AT KILOBASE SCALE” (THE BOARD OF TRUSTEES OF THE LELAND STANFORD JUNIOR …, priority 2021, published 2025).

B1: SSAP_59: SEQ ID NO: 228 (protein)
chain: SEIQQQAEAQTQAHPTAVLDDYRGAIASVAPPGTNIDLFIRMTKSNVNRSDEIVAAVKRNPGLFMQAVMDSAALGHIPGSEYYYLTPRRDGISGIESWKGVAKRIFNTGRYQRIVCEVVYEGEQWEFQPGEDLKPKHVIDWDARQVGSKVRFTYAYAVDFEGNPSTVAVCTKLDLDKAQKQSRGKVWDQWYEQMAKKTAIKRLEDFVDTSAVDLRADGSSRRHSAEVAE
B2: SSAP_268: SEQ ID NO: 437; Oceanobacillus sp. E9 (protein, listed as Oceanobacillus sp.)
chain: ATNDSLKNQLSSKQGNQNTPSGYTIKQLMGAESVKKRFEEMLDSKASQFMASVINLVNGDTNLQKCDQMSVVSSAMVAATLDLPIDRNLGYAWVIPYGNQATFQLGYKGYIQLALRSGQYRNINVIEVYEGELQSFNRLTEEIELDFEKRTSDKVIGYTGFFELINGFRKTVYWSKAEIEKHKNKFSKSGFGWKNDWDAMAKKTVVRNMLNKWGILSIDMQKAYVEETKDPSEPNGEVIDLNLTEDELTAAQEQFSDENANE
B3: SSAP_278: SEQ ID NO: 447; Paraliobacillus ryukyuensis (protein, listed as Paraliobacillus ryukyuensis)
chain: ATNDTLKNQISNKKNNQVAEGKQGTTMKGLLNSPAVMKRFEEVLGKRANQFTASILSLYNNEKTLQKSEPMSVISSAMIAATLDLPIDKNLGYAWIVPYGNKAQFQLGYKGYIQLALRTGQYRNINVIEVYEGELVKWNRLTEELELDFEQKKSDKVIGYTGYFELINGFRKTVYWSKADIEKHKQKFSKSNFGWSNDWDAMAKKTVIRNMLNKWGILSIDMQKAYSTDEIEQEQESNDFIDGEWAEVSEDDITEAMNEV
B4: SSAP_122: SEQ ID NO: 291; Clostridium transplantifaecale (protein)
chain: TDVKEELARKAGNTGKQEIRLNKNMSIPDMVKVLEPEIKRALPSVLTPERFTRMALSAINNTPKLAECSPMSFIAALMNAAQLGLEPNTPLGQAYLIPYKNKNQLECQFQIGYKGYIDLAYRTGQVQMIQAQAVHEFDYFEYEYGLTPKLVHRPGEGERGEITYFYGLFKMINGGFGFEVMNRAAMDAFAKQYSQSINSKYSPWNSQYEEMAKKTIIKKALKYGPVKSDFQKAISMDESIKTELSIDMSEVRNEDLIDGEFEEAA
modifications: Clostridium transplantifaecale
B5: SSAP_307: SEQ ID NO: 476; Acetobacterium dehalogenans (protein)
chain: CLRSWTRSFSNSVPLKIRFRLLYTAFLSQGSPLSSVNTTQSADKGSPIFFYAMFKTKDGGYGFEVMSVEDVRAHAKKYSQSFSSAYSPWSKNFEEMAKKTVLKKALKYAPLKSDFVRGIVVDETIKREISEDMYAAPSIEIEYEVDEDGVIQDEPTSNELTEAEK
modifications: Acetobacterium dehalogenans
B6: SSAP_119: SEQ ID NO: 288; Bacillus albus (protein, listed as Bacillus albus)
chain: ATNEKLKNQLANRKESAPATPEQTVEAYMKKMAPKMAEVLPKHMDMGRMSRMALTTMRTSPKLLNCTVSSLMGAVMQAVQLGLEPGLLGHCYILPYKGEATFIIGYKGMIDLARRSGHIQSIYAHAVHENDEFDYELGLHPKLEHKPVHGDRGAFVGAYAVAHFKDGGYQMEFMPKSEIEKRRKRSASANSSFSPWKSDYEEMAKKTVIRYIFKYLPISIEVQLLAAQDEVVRKDITEEPEFIEADPIDVEQPTTEGDGQQEFSIEE
B7: SSAP_151: SEQ ID NO: 320; Mammaliicoccus (protein, listed as Mammaliicoccus sp.)
chain: ATNESIKNQVASRKKNEVQNKSPKTQLNDLLIKMGPEIQRALPKHMDADRMARIAMTAVSTTPKLLECDQMSFIGALMQASQLGVEPNTGLGQAYLIPYGGKVQFQLSYKGLIDLATRSGQYKAIYAHEVFPNDEFNYQYGLFKNLEHIPSQEPEGEPIGYYAVYHLKNGGYDFVYWTRERVDKHAKDFSQAVQKGWTSPWKTNYDAMAKKTVLKEVLKYAPKSIEMNKAVNSDSTIKDEINEDMSSVIDITDYEEVNDQQEEKKEESK
B8: SSAP_159: SEQ ID NO: 328; Clostridium hathewayi CAG: 224 (protein, listed as Clostridium hathewayi)
chain: ANDIRGELARRASGTETQAVKLTKNMSIPDMIKALEPEIKRALPTILTPERFTRIALSAINNTPKLAECSPMSFIAALMNAAQLGLEPNTPLGQAFLIPYKVKGSLECQFQIGYRGMIDLAYRNERVQSIEAHTVYENDVFEYELGLNPRLVHIPTMEEPGDPIAFYGIFRLDNGGFRFEVMNKNAIDAYAARYSKAYDSASSPWKNNYESMACKTVLKQLLKYSPMKSEFQKAVSMDESVKTELSVDMSEVQNVNLIEETQEDAA
B9: SSAP_141: SEQ ID NO: 310; Hungatella hathewayi (protein, listed as Hungatella hathewayi)
chain: RRDRNVTAVKQELEKKAAGTSQAVKLTKNMTIVDMVKALEPEIKRALPSILTPERFTRMALSAINNTPKLAECTPMSFIAALMNAAQLGLEPNTPLGQAYLIPYKNKGVLECQFQLGYRGMIDLAYRNERMQSIEAQTVYEHDEFFYELGLHPALVHRPTFEDRGEIRAFYAIFRLDNGGYRFEVMSKSYVDAYAMRYSKAFTSEFSPWKSNYEGMAKKTVIKQLLKYAPVKSEFQKAITLDETVKTELSVDMSEVQNEDLSETLTAESAA

Test system: gene editing with Cas9
Experiment: Screen of 322 new SSAP proteins, gene editing activity with Cas9 (Table 5)
Assay type: cell-based
Design: Cas9 with SSAP activity: scale not given here
Settings: not given
Outline: (§1)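 Synthetic SSAP candidates, identified computationally, were tested in editing screens using both Cas9 and dCas9.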

Going from B1 to B2, the “Cas9 with SSAP activity” value falls from 0.218 to −0.160.

Compared with B3, B4 is higher in “Cas9 with SSAP activity” value: 1.070 for the first, 1.429 for the second.

Compared with B5, B6 is higher in “Cas9 with SSAP activity” value: −1.090 for the first, −0.911 for the second.

Compared with B7, B8 is higher in “Cas9 with SSAP activity” value: −4.713 for the first, 1.622 for the second.

For B9, the “Cas9 with SSAP activity” value was −2.047.

Same assay, conditions: normalized

Going from B1 to B2, the “Cas9 with SSAP activity (normalized)” value falls from 0.538 to −0.383.

Compared with B3, B4 is lower in “Cas9 with SSAP activity (normalized)” value: 2.231 for the first, 0.558 for the second.

Going from B5 to B6, the “Cas9 with SSAP activity (normalized)” value falls from −2.185 to −3.635.

First: B7
Second: B8
The “Cas9 with SSAP activity (normalized)” value of the first is lower: −0.683 for the first, 2.756 for the second.

B9 was tested, and the “Cas9 with SSAP activity (normalized)” value was −0.694.

Test system: gene editing with dCas9
Experiment: Screen of 322 new SSAP proteins, gene editing activity with dCas9 (Table 5)
Assay type: cell-based
Design: dCas9 with SSAP activity: scale not given here
Settings: not given
Outline: as §1

Compared with B1, B2 is higher in “dCas9 with SSAP activity” value: −1.201 for the first, −1.151 for the second.

Going from B3 to B4, the “dCas9 with SSAP activity” value falls from −1.129 to −1.142.

Compared with B5, B6 is lower in “dCas9 with SSAP activity” value: −1.100 for the first, −1.189 for the second.

Compared with B7, B8 is higher in “dCas9 with SSAP activity” value: −1.257 for the first, −1.156 for the second.

For B9, the “dCas9 with SSAP activity” value was −1.179.

Same assay, conditions: normalized

First: B1
Second: B2
The “dCas9 with SSAP activity (normalized)” value of the first is higher: −0.336 for the first, −0.400 for the second.

Compared with B3, B4 is higher in “dCas9 with SSAP activity (normalized)” value: −1.000 for the first, −0.148 for the second.

Compared with B5, B6 is higher in “dCas9 with SSAP activity (normalized)” value: −0.907 for the first, −0.361 for the second.

Compared with B7, B8 is higher in “dCas9 with SSAP activity (normalized)” value: −0.422 for the first, −0.358 for the second.

For B9, the “dCas9 with SSAP activity (normalized)” value was −0.244.

Test system: gene editing with Cas9 and dCas9
Experiment: Screen of 322 new SSAP proteins, activity across all experiments (Cas9 and dCas9, Table 5)
Assay type: cell-based
Design: scale not given here
Settings: not given
Outline: as §1

First: B1
Second: B2
The “Activity across all experiments” value of the first is higher: −0.491 for the first, −0.656 for the second.

Going from B3 to B4, the “Activity across all experiments” value rises from −0.030 to 0.144.

First: B5
Second: B6
The “Activity across all experiments” value of the first is lower: −1.095 for the first, −1.050 for the second.

Compared with B7, B8 is higher in “Activity across all experiments” value: −2.985 for the first, 0.233 for the second.

For B9, the “Activity across all experiments” value was −1.613.
